According to patent publication US20230140293A1:

Tests used:
Assay in all cases: cell-based or functional assay
[1] = molecular target: CH0505TF.gly4 Env, Env-pseudotyped virus produced in 293T cells (HIV-1)
[2] = molecular target: HIV-1 426c.TM (N276D/N460D/N463D) Env on Env-pseudotyped virus produced in 293T cells (HIV-1)
[3] = molecular target: HIV-1 Env 426c.SM (N276D), Env-pseudotyped virus produced in 293T cells (HIV-1 clade C strain 426c)
[4] = molecular target: HIV-1 Env 426c, Env-pseudotyped virus produced in 293S GnTI- cells (Man5-enriched) (HIV-1 clade C strain 426c)
[5] = molecular target: CH0505.w4.3 Env, Env-pseudotyped virus produced in 293T cells (HIV-1)
[6] = molecular target: CH0505TF.G458Y Env, Env-pseudotyped virus produced in 293S GnTI- cells (Man5-enriched) (HIV-1)
[7] = molecular target: HIV-1 Env 426c.TM (N276D.N460D.N463D), Env-pseudotyped virus produced in 293T cells (HIV-1 clade C strain 426c)
[8] = molecular target: CH0505TF.gly3.276 Env, Env-pseudotyped virus produced in 293T cells (HIV-1)
[9] = molecular target: HIV-1 426c.DM (N460D/N463D) Env on Env-pseudotyped virus produced in 293T cells (HIV-1)
[10] = molecular target: HIV-1 Env 426c.DM (N460D.N463D), Env-pseudotyped virus produced in 293T cells (HIV-1 clade C strain 426c)
[11] = molecular target: HIV-1 426c.DM (N460D/N463D) Env on Env-pseudotyped virus produced in 293s/GnTI-/- cells (Man5-enrichment) (HIV-1)
[12] = molecular target: CH0505TF.gly3.461 Env, Env-pseudotyped virus produced in 293S GnTI- cells (Man5-enriched) (HIV-1)
[13] = molecular target: CH0505TF.gly3.461 Env, Env-pseudotyped virus produced in 293T cells (HIV-1)
[14] = molecular target: HIV-1 426c.SM (N276D) Env on Env-pseudotyped virus produced in 293T cells (HIV-1)
[15] = molecular target: HIV-1 Env 426c.TM (N276D.N460D.N463D), Env-pseudotyped virus produced in 293S GnTI- cells (Man5-enriched) (HIV-1 clade C strain 426c)
[16] = molecular target: CH0505TF.G458Y Env, Env-pseudotyped virus produced in 293T cells (HIV-1)
[17] = molecular target: HIV-1 clade C strain 426c Env on Env-pseudotyped virus produced in 293T cells (HIV-1)
[18] = molecular target: CH0505TF Env, Env-pseudotyped virus produced in 293T cells (HIV-1)
[19] = molecular target: CH0505TF Env, Env-pseudotyped virus produced in 293S GnTI- cells (Man5-enriched) (HIV-1)
[20] = molecular target: HIV-1 426c.TM (N276D/N460D/N463D) Env on Env-pseudotyped virus produced in 293s/GnTI-/- cells (Man5-enrichment) (HIV-1)
[21] = molecular target: HIV-1 Env 426c.TM4 (S278R.G471S.N460D.N463D), Env-pseudotyped virus produced in 293T cells (HIV-1 clade C strain 426c)
[22] = molecular target: HIV-1 Env 426c.DM (N460D.N463D), Env-pseudotyped virus produced in 293S GnTI- cells (Man5-enriched) (HIV-1 clade C strain 426c)
[23] = molecular target: HIV-1 426c.SM (N276D) Env on Env-pseudotyped virus produced in 293s/GnTI-/- cells (Man5-enrichment) (HIV-1)
[24] = molecular target: CH0505TF.gly4 Env, Env-pseudotyped virus produced in 293S GnTI- cells (Man5-enriched) (HIV-1)
[25] = molecular target: HIV-1 Env 426c, Env-pseudotyped virus produced in 293T cells (HIV-1 clade C strain 426c)
[26] = molecular target: HIV-1 Env 426c.SM (N276D), Env-pseudotyped virus produced in 293S GnTI- cells (Man5-enriched) (HIV-1 clade C strain 426c)
[27] = molecular target: HIV-1 Env 426c.TM4 (S278R.G471S.N460D.N463D), Env-pseudotyped virus produced in 293S GnTI- cells (Man5-enriched) (HIV-1 clade C strain 426c)
[28] = molecular target: CH0505TF.gly3.197 Env, Env-pseudotyped virus produced in 293S GnTI- cells (Man5-enriched) (HIV-1)
[29] = molecular target: HIV-1 clade C strain 426c Env on Env-pseudotyped virus produced in 293s/GnTI-/- cells (Man5-enrichment) (HIV-1)
[30] = molecular target: CH0505TF.gly3.276 Env, Env-pseudotyped virus produced in 293S GnTI- cells (Man5-enriched) (HIV-1)
[31] = molecular target: CH0505TF.gly3.197 Env, Env-pseudotyped virus produced in 293T cells (HIV-1)

| Substance | IC50 (µg/ml) in TZM-bl [1] [µg/mL] | IC50 (µg/ml) in TZM-bl [3] [µg/mL] | IC50 (µg/ml) in TZM-bl [4] [µg/mL] | IC50 (µg/ml) in TZM-bl [5] [µg/mL] | IC50 (µg/ml) in TZM-bl [6] [µg/mL] | IC50 (µg/ml) in TZM-bl [7] [µg/mL] | IC50 (µg/ml) in TZM-bl [8] [µg/mL] | IC50 (µg/ml) in TZM-bl [10] [µg/mL] | IC50 (µg/ml) in TZM-bl [12] [µg/mL] | IC50 (µg/ml) in TZM-bl [13] [µg/mL] | IC50 (µg/ml) in TZM-bl [15] [µg/mL] | IC50 (µg/ml) in TZM-bl [16] [µg/mL] | IC50 (µg/ml) in TZM-bl [18] [µg/mL] | IC50 (µg/ml) in TZM-bl [19] [µg/mL] | IC50 (µg/ml) in TZM-bl [21] [µg/mL] | IC50 (µg/ml) in TZM-bl [22] [µg/mL] | IC50 (µg/ml) in TZM-bl [24] [µg/mL] | IC50 (µg/ml) in TZM-bl [25] [µg/mL] | IC50 (µg/ml) in TZM-bl [26] [µg/mL] | IC50 (µg/ml) in TZM-bl [27] [µg/mL] | further results |
| --- | --- | --- | --- | --- | --- | --- | --- | --- | --- | --- | --- | --- | --- | --- | --- | --- | --- | --- | --- | --- | --- |
| 2F5 (antibody) | > 25 | > 25 | > 25 | > 25 | > 25 | > 25 | > 25 | > 25 | > 25 | > 25 | > 25 | > 25 | > 25 | > 25 | > 25 | > 25 | > 25 | > 25 | > 25 | > 25 | ID50/IC50 in TZM-bl [2]: > 25 µg/mL; ID50/IC50 in TZM-bl [9]: > 25 µg/mL; ID50/IC50 in TZM-bl [11]: > 25 µg/mL; ID50/IC50 in TZM-bl [14]: > 25 µg/mL; ID50/IC50 in TZM-bl [17]: > 25 µg/mL; ID50/IC50 in TZM-bl [20]: > 25 µg/mL; ID50/IC50 in TZM-bl [23]: > 25 µg/mL; IC50 (µg/ml) in TZM-bl [28]: > 25 µg/mL; ID50/IC50 in TZM-bl [29]: > 25 µg/mL; IC50 (µg/ml) in TZM-bl [30]: > 25 µg/mL; IC50 (µg/ml) in TZM-bl [31]: > 25 µg/mL |
| 2G12 (antibody) | > 25 | > 25 | > 25 | > 50 | > 25 | > 25 | > 25 | > 25 | > 25 | > 25 | > 25 | > 25 | > 25 | > 25 | > 25 | > 25 | > 25 | > 25 | > 25 | > 25 | ID50/IC50 in TZM-bl [2]: > 25 µg/mL; ID50/IC50 in TZM-bl [9]: > 25 µg/mL; ID50/IC50 in TZM-bl [11]: > 25 µg/mL; ID50/IC50 in TZM-bl [14]: > 25 µg/mL; ID50/IC50 in TZM-bl [17]: > 25 µg/mL; ID50/IC50 in TZM-bl [20]: > 25 µg/mL; ID50/IC50 in TZM-bl [23]: > 25 µg/mL; IC50 (µg/ml) in TZM-bl [28]: > 25 µg/mL; ID50/IC50 in TZM-bl [29]: > 25 µg/mL; IC50 (µg/ml) in TZM-bl [30]: > 25 µg/mL; IC50 (µg/ml) in TZM-bl [31]: > 25 µg/mL |
| 10E8 (antibody) | 2.7 | 1.26 | 0.35 | 1.1 | 2.1 | 1.52 | 3.3 | 1.11 | 2.5 | 3.3 | 0.51 | 1.1 | 4.4 | 2.2 | 0.53 | 0.45 | 2.2 | 0.8 | 0.28 | 0.19 | IC50 (µg/ml) in TZM-bl [28]: 4 µg/mL; IC50 (µg/ml) in TZM-bl [30]: 2.3 µg/mL; IC50 (µg/ml) in TZM-bl [31]: 3.4 µg/mL |
